Experimental data as given in patent US20250296912A1, “AFFINITY ILLUDOFULVENE CONJUGATES” (Illudent, Inc., published 2025).
The star is where a group is joined. 3‑aminopropyl acylfulvene = analog 211, C-terminal Leu bound as amide to it; Mu = 4-morpholine-carbonyl, O=C(N1CCOCC1)*

Target: prostate specific antigen (Homo sapiens)
Assay: cell-based or functional assay

IC50 (48 hour exposure), Prostate DuPro (trace PSA): 13 µM
IC50 (48 hour exposure), Prostate LnCAP (positive PSA): 0.8 µM
B1: Analog 221 (Mu-His-Ser-Ser-Lys-Leu-Gln coupled to analog 207, 211-leucine) (peptide)
peptide: Mu-HSSKLQL-{3‑aminopropyl acylfulvene}
